The experiment deals with Ndc80C-GFP (S. cerevisiae Ndc80 complex with GFP at the C terminus of Spc24) (S. cerevisiae) (UniProt P40460).

The results in this text go back to paper PMC8050843.

Sequence of UniProt P40460 (P40460 whole entry, chain 1 of 4): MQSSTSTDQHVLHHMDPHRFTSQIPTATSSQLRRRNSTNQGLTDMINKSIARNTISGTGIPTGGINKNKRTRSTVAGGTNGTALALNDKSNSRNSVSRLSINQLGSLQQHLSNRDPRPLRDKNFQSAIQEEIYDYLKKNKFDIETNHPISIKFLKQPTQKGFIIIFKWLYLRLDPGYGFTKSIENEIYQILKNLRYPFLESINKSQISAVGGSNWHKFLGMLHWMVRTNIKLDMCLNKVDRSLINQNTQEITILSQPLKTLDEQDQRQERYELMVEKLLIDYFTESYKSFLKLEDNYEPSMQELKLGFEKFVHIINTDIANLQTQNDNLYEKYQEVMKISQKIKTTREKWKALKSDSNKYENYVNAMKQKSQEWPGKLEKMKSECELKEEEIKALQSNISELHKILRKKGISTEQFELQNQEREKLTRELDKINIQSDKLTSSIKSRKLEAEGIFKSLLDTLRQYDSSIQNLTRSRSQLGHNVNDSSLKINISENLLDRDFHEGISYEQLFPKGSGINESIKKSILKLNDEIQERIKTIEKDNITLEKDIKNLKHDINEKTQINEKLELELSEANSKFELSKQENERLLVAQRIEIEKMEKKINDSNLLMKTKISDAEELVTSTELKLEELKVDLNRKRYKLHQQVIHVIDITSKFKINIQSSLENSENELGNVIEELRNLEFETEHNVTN
Sequence of UniProt P40460 (P33895 whole entry, chain 2 of 4, further chain): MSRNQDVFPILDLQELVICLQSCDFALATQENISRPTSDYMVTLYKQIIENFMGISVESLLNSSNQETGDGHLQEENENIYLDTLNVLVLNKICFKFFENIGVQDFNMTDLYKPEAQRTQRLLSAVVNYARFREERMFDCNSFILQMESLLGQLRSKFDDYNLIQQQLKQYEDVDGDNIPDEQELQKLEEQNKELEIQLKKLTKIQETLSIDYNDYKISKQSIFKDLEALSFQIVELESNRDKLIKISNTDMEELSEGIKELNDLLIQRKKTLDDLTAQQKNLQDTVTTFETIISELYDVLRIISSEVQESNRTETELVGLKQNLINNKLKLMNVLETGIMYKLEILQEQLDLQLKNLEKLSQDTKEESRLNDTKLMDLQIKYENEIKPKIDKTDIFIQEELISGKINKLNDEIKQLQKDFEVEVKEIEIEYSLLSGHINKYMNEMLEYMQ
Sequence of UniProt P40460 (Q04477 whole entry, chain 3 of 4, further chain): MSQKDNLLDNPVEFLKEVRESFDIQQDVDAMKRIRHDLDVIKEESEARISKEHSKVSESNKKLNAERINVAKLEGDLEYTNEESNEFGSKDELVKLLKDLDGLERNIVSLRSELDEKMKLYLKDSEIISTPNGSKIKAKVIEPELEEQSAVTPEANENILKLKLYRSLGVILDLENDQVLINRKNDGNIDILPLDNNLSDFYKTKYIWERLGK
Sequence of UniProt P40460 (P40014 whole entry, chain 4 of 4, further chain): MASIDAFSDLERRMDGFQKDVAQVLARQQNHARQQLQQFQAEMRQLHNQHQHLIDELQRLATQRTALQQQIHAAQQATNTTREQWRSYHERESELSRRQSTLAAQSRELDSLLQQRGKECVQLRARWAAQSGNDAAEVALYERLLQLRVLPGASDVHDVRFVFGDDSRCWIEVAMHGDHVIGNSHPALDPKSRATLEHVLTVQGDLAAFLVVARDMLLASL

Regarding “Dam1C (S. cerevisiae Dam1 complex, without GFP) (from UniProt P53267 1-343; Q12248 1-94; P36131 1-295)”, the detachment of the Ndc80C nanobead from the MT plus end following transient end-on attachment (end-on drop-off) in the absence of Dam1C, against its presence was 31%.
